One molecule from US20230218656, “POLYPEPTIDES […] AGAINST VIRAL INFECTION AND USES […]” (QUADRUMIX BIOTECHNOLOGY INC., published 2023) can be followed below.

The target in this series is sdAb1 (NB07) (Artificial sequence). The series is described as follows: MST; negative control; p86 says only weak interaction in phage ELISA (FIG. 4). The conditions noted are these: G4. (In general: ELISA stands for enzyme-linked immunosorbent assay.)
Chain of sdAb1 (NB07) (Artificial sequence) (chain, as listed by the source): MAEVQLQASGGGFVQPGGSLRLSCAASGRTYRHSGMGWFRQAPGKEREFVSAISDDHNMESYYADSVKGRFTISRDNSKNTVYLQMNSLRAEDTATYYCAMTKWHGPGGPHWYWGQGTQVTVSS

For the molecule CTGGGAGGAGCTGGGGGAGGAGA (structured_DNA) [HBV pre-core promoter G-quadruplex (WT)], the binding result is “no binding”.
